Results: patent publication US20260199463A1 (CENTURY THERAPEUTICS, published 2026)
Residue numbers refer to the chain shown, from its start. One block for each binder: values may come before it.

Legend:
[1] = target: T1, Nectin4-HIS protein (AcroBiosystems #NE4-H52H3) (UniProt Q96NY8 32-349); test: ELISA, periplasmic extract on plate-bound Nectin4 (1 ug/mL), anti-Flag:HRP detection
T1 construct: Bought protein; also called Nectin4 protein; recombinant Nectin4-HIS protein; not shown: His tag
T1 sequence (looked up): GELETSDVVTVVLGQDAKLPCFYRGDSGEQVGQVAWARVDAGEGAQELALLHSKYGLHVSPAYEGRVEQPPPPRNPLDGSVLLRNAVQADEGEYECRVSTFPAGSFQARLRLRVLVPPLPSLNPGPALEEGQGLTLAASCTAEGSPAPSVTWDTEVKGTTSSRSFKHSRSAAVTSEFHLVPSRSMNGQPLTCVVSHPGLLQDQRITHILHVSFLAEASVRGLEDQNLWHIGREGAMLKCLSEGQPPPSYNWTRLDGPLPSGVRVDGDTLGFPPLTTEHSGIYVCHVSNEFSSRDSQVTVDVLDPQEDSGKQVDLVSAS
Protocol: ELISA: 8 Maxisorp plates were coated with 100 uL/well Nectin4 at 1 ug/mL overnight at 4° C. Plates were emptied, and 200 uL/well SuperBlock was added to all plates, and incubated for 1 hour at RT. The plate was washed 1× with TBST on the Aquamax plate washer. 60 μL of anti-Flag:HRP (1:10,000 in PBS-T with 1:10 Superblock) was added per well to a V-bottom plate for each library screening plate. 60 uL/well PPE was added per well to the V-bottom plates and incubated for 1 hour at RT. 50 μL of the PPE/Anti-Flag mix was transferred to each ELISA plate and incubated for 1 hour at RT. The plate was washed 3× with TBST on the Aquamax plate washer. 50 uL/well TMB Ultra solution was added and incubated at RT for 30 minutes, until the wells appeared blue. 50 uL/well stop solution was added and absorbance at 450 nm was read on the Spectramax i3× plate reader. 54 unique clones were identified from the two libraries. A subset of 20 clones was selected from V2S and V2 M for cloning into P201 (SEQ ID Nos. 111-130).

[2] = target: T1, Nectin4-HIS protein (AcroBiosystems …); test: flow cytometry, Nectin4-HIS at 2 ug/ml on CAR-transduced Nurkat cells

B1: NEC_M_29 (VHH)
VHH: EVQLLESGGGLVQPGGSLRLSCAASGFTYTSYVMGWYRQAPGKERELVSAIYGSAGSGYYADSVKGRFTISRDNSKNTLYLQMNSLKPEDTAVYYCARVTTTTHLWSAEYWGQGTQVTVSS
notes: Periplasmic extract (PPE) of a panning clone
binding result [1]: binds

B2: NEC_M_17 (VHH)
VHH: EVQLLESGGGLVQPGGSLRLSCAASGFTYSGYAMGWYRQAPGKERELVSSISGSGTLTSYADSVKGRFTISRDNSKNTLYLQMNSLKPEDTAVYYCDVDIPVGDATTVGDYWGQGTQVTVSS
notes: as for B1
binding result [1]: binds

B3: MARS SP_NEC_M_44_P3109_CD8 Hinge_CD28 tm_41BB_CD3Z (other)
chain: EVQLLESGGGLVQPGGSLRLSCAASGRTLSSYAMGWYRQAPGKERELVSSISGSGGSTRYADSVKGRFTISRDNSKNTLYLQMNSLKPEDTAVYYCAVYILELAPGAEYWGQGTQVTVSSTTTPAPRPPTPAPTIASQPLSLRPEACRPAAGGAVHTRGLDFACDFWVLVVVGGVLACYSLLVTVAFIIFWVKRGRKKLLYIFKQPFMRPVQTTQEEDGCSCRFPEEEEGGCELRVKFSRSADAPAYQQGQNQLYNELNLGRREEYDVLDKRRGRDPEMGGKPRRKNPQEGLYNELQKDKMAEAYSEIGMKGERRRGKGHDGLYQGLSTATKDTYDALHMQALPPR
notes: Chimeric antigen receptor on transduced Nurkat cells or primary T cells
binding result [2]: binds

B4: MARS SP_NEC_M_46_P3110_CD8 Hinge_CD28 tm_41BB_CD3Z (other)
chain: EVQLLESGGGLVQPGGSLRLSCAASGYTFSDYAMGWYRQAPGKERELVSSISGSGGSTRYADSVKGRFTISRDNSKNTLYLQMNSLKPEDTAVYYCAAVIRQPSTGFYEYWGQGTQVTVSSTTTPAPRPPTPAPTIASQPLSLRPEACRPAAGGAVHTRGLDFACDFWVLVVVGGVLACYSLLVTVAFIIFWVKRGRKKLLYIFKQPFMRPVQTTQEEDGCSCRFPEEEEGGCELRVKFSRSADAPAYQQGQNQLYNELNLGRREEYDVLDKRRGRDPEMGGKPRRKNPQEGLYNELQKDKMAEAYSEIGMKGERRRGKGHDGLYQGLSTATKDTYDALHMQALPPR
notes: as for B3
binding result [2]: binds

B5: NEC_M_46 (VHH)
VHH: EVQLLESGGGLVQPGGSLRLSCAASGYTFSDYAMGWYRQAPGKERELVSSISGSGGSTRYADSVKGRFTISRDNSKNTLYLQMNSLKPEDTAVYYCAAVIRQPSTGFYEYWGQGTQVTVSS
notes: as for B1
binding result [1]: binds

B6: NEC_S_2 (VHH)
VHH: EVQLLESGGGLVQPGGSLRLSCAASGSTFSSNAMGWYRQAPGKERELVSSISGSGGSTRYADSVKGRFTISRDNSKNTLYLQMNSLKPEDTAVYYCASYVLYLREYWGQGTQVTVSS
notes: as for B1
binding result [1]: binds

B7: NEC_S_31 (VHH)
VHH: EVQLLESGGGLVQPGGSLRLSCAASGFTYSSYAMGWYRQAPGKERELVSSISGSGGSTRYADSVKGRFTISRDNSKNTLYLQMNSLKPEDTAVYYCAVAIGVGDYWGQGTQVTVSS
notes: as for B1
binding result [1]: binds

B8: NEC_S_56 (VHH)
VHH: B7 VHH with F27L, Y29L, Y37F, A99D, G101R, V102L, G103T
notes: as for B1
binding result [1]: binds

B9: NEC_S_55 (VHH)
VHH: EVQLLESGGGLVQPGGSLRLSCAASGFTLSSYAMGWYRQAPGKERELVSSISGSGGSTRYADSVKGRFTISRDNSKNTLYLQMNSLKPEDTAVYYCAAYIGGDYLGQGTQVTVSS
notes: as for B1
binding result [1]: binds

B10: NEC_M_66 (VHH)
VHH: EVQLLESGGGLVQPGGSLRLSCAASGFAYSSYSIGWYRQAPGKERELVSAISGSGGSSRYADSVKGRFTISRDNSKNTLYLQMNSLKPEDTAVYYCAAIAYVYTSTARNYWGQGTQVTVSS
notes: as for B1
binding result [1]: binds

B11: NEC_M_8 (VHH)
VHH: EVQLLESGGGLVQPGGSLRLSCAASGFTFSSYAMGWYRQAPGKEREFVSSISGSGGLTRYADSVKGRFTISRDNSKNTLYLQMNSLKPEDTAVYYCAVTTGYQGGVYDYWGQGTQVTVSS
notes: as for B1
binding result [1]: binds

B12: NEC_M_44 (VHH)
VHH: EVQLLESGGGLVQPGGSLRLSCAASGRTLSSYAMGWYRQAPGKERELVSSISGSGGSTRYADSVKGRFTISRDNSKNTLYLQMNSLKPEDTAVYYCAVYILELAPGAEYWGQGTQVTVSS
notes: as for B1
binding result [1]: binds

B13: MARS SP_NEC_M_5_P3106_CD8 Hinge_CD28 tm_41BB_CD3Z (other)
chain: EVQLLESGGGLVQPGGSLRLSCAASGLSFSSYSMGWYRQAPGKEREFVSAISGSSGSTNYADSVKGRFTISRDNSKNTLYLQMNSLKPEDTAVYYCAAEHRVTTSGVFYDYWGQGTQVTVSSTTTPAPRPPTPAPTIASQPLSLRPEACRPAAGGAVHTRGLDFACDFWVLVVVGGVLACYSLLVTVAFIIFWVKRGRKKLLYIFKQPFMRPVQTTQEEDGCSCRFPEEEEGGCELRVKFSRSADAPAYQQGQNQLYNELNLGRREEYDVLDKRRGRDPEMGGKPRRKNPQEGLYNELQKDKMAEAYSEIGMKGERRRGKGHDGLYQGLSTATKDTYDALHMQALPPR
notes: as for B3
binding result [2]: binds

B14: NEC_S_5 (VHH)
VHH: EVQLLESGGGLVQPGGSLRLSCAASGLTFRYNAMGWYRQAPGKEREFVSAISGSGGGTYYADSVKGRFTISRDNSKNTLYLQMNSLKPEDTAVYYCAAEGLYDYWGQGTQVTVSS
notes: as for B1
binding result [1]: binds

B15: NEC_M_5 (VHH)
VHH: EVQLLESGGGLVQPGGSLRLSCAASGLSFSSYSMGWYRQAPGKEREFVSAISGSSGSTNYADSVKGRFTISRDNSKNTLYLQMNSLKPEDTAVYYCAAEHRVTTSGVFYDYWGQGTQVTVSS
notes: as for B1
binding result [1]: binds

B16: NEC_S_16 (VHH)
VHH: EVQLLESGGGLVQPGGSLRLSCAASGFTFSDYYMGWYRQAPGKEREFVSAISSTGGSPYYADSVKGRFTISRDNSKNTLYLQMNSLKPEDTAVYYCAVEVPYDYWGQGTQVTVSS
notes: as for B1
binding result [1]: binds

Other lines, results leading:

binding result [1]: binds
B17: NEC_S_64 (VHH)
VHH: B16 VHH with T28A, F29Y, D31S, T54S, S57G, P58T, V100L, P101T, D103N
notes: as for B1

binding result [1]: binds
B18: NEC_M_21 (VHH)
VHH: EVQLLESGGGLVQPGGSLRLSCAASGLTFSSNAMGWYRQAPGKERELVSSISGSGGSTNYADSVKGRFTISRDNSKNTLYLQMNSLKPEDTAVYYCAAEIATYYDFADYWGQGTQVTVSS
notes: as for B1

binding result [1]: binds
B19: NEC_M_84 (VHH)
VHH: EVQLLESGGGLVQPGGSLRLSCAASGFAFSIDAMGWYRQAPGKEREGVSSISGSGGLTRYADSVKGRFTISRDNSKNTLYLQMNSLKPEDTAVYYCDTAVLTGYSEAFDYWGQGTQVTVSS
notes: as for B1

binding result [1]: binds
B20: NEC_S_11 (VHH)
VHH: EVQLLESGGGLVQPGGSLRLSCAASGLTSSGYAMGWYRQAPGKERELVSSISSSGGLTHYADSVKGRFTISRDNSKNTLYLQMNSLKPEDTAVYYCDADIAYTGADYWGQGTQVTVSS
notes: as for B1

binding result [2]: binds
B21: MARS SP_NEC_S_31_P3113_CD8 Hinge_CD28 tm_41BB_CD3Z (other)
chain: EVQLLESGGGLVQPGGSLRLSCAASGFTYSSYAMGWYRQAPGKERELVSSISGSGGSTRYADSVKGRFTISRDNSKNTLYLQMNSLKPEDTAVYYCAVAIGVGDYWGQGTQVTVSSTTTPAPRPPTPAPTIASQPLSLRPEACRPAAGGAVHTRGLDFACDFWVLVVVGGVLACYSLLVTVAFIIFWVKRGRKKLLYIFKQPFMRPVQTTQEEDGCSCRFPEEEEGGCELRVKFSRSADAPAYQQGQNQLYNELNLGRREEYDVLDKRRGRDPEMGGKPRRKNPQEGLYNELQKDKMAEAYSEIGMKGERRRGKGHDGLYQGLSTATKDTYDALHMQALPPR
notes: as for B3

binding result [1]: binds
B22: NEC_M_82 (VHH)
VHH: EVQLLESGGGLVQPGGSLRLSCAASGFTYSDYAMGWYRQAPGKERELVSAISSYGGVTNYADSVKGRFTISRDNSKNTLYLQMNSLKPEDTAVYYCAAYGALSIRGYDYWGQGTQVTVSS
notes: as for B1

binding result [2]: binds
B23: MARS SP_NEC_M_8_P3107_CD8 Hinge_CD28 tm_41BB_CD3Z (other)
chain: EVQLLESGGGLVQPGGSLRLSCAASGFTFSSYAMGWYRQAPGKEREFVSSISGSGGLTRYADSVKGRFTISRDNSKNTLYLQMNSLKPEDTAVYYCAVTTGYQGGVYDYWGQGTQVTVSSTTTPAPRPPTPAPTIASQPLSLRPEACRPAAGGAVHTRGLDFACDFWVLVVVGGVLACYSLLVTVAFIIFWVKRGRKKLLYIFKQPFMRPVQTTQEEDGCSCRFPEEEEGGCELRVKFSRSADAPAYQQGQNQLYNELNLGRREEYDVLDKRRGRDPEMGGKPRRKNPQEGLYNELQKDKMAEAYSEIGMKGERRRGKGHDGLYQGLSTATKDTYDALHMQALPPR
notes: as for B3
